According to IntAct's records for PubMed 18952841:

B1: Protein CBFA2T1 (Homo sapiens), Q06455 (parent)
chain: MISVKRNTWRALSLVIGDCRKKGNFEYCQDRTEKHSTMPDSPVDVKTQSRLTPPTMPPPPTTQGAPRTSSFTPTTLTNGTSHSPTALNGAPSPPNGFSNGPSSSSSSSLANQQLPPACGARQLSKLKRFLTTLQQFGNDISPEIGERVRTLVLGLVNSTLTIEEFHSKLQEATNFPLRPFVIPFLKANLPLLQRELLHCARLAKQNPAQYLAQHEQLLLDASTTSPVDSSELLLDVNENGKRRTPDRTKENGFDREPLHSEHPSKRPCTISPGQRYSPNNGLSYQPNGLPHPTPPPPQHYRLDDMAIAHHYRDSYRHPSHRDLRDRNRPMGLHGTRQEEMIDHRLTDREWAEEWKHLDHLLNCIMDMVEKTRRSLTVLRRCQEADREELNYWIRRYSDAEDLKKGGGSSSSHSRQQSPVNPDPVALDAHREFLHRPASGYVPEEIWKKAEEAVNEVKRQAMTELQKAVSEAERKAHDMITTERAKMERTVAEAKRQAAEDALAVINQQEDSSESCWNCGRKASETCSGCNTARYCGSFCQHKDWEKHHHICGQTLQAQQQGDTPAVSSSVTPNSGAGSPMDTPPAATPRSTTPGTPSTIETTPR

Variants of: B1
Conditions: with son_human SON

Variant	effect of a mutation on the interaction
C515S	disrupting interaction strength

Variants of: B1
Conditions: with son_mouse Son

Variant	effect of a mutation on the interaction
C515S	disrupting interaction strength
